Experimental data as given in publication PMC8324060 (Science Advances, 2021).

Tests used:
[1] = biological target: Human MLH1 C-terminal domain (amino acids 486 to 756) (human) (UniProt P40692); test: ITC
[2] = biological target: recombinant MutLα (MLH1-PMS2) (human, UniProt P40692;P54278); test: pull-down
Chain of recombinant MutLα (MLH1-PMS2) (P40692 whole entry, chain 1 of 2): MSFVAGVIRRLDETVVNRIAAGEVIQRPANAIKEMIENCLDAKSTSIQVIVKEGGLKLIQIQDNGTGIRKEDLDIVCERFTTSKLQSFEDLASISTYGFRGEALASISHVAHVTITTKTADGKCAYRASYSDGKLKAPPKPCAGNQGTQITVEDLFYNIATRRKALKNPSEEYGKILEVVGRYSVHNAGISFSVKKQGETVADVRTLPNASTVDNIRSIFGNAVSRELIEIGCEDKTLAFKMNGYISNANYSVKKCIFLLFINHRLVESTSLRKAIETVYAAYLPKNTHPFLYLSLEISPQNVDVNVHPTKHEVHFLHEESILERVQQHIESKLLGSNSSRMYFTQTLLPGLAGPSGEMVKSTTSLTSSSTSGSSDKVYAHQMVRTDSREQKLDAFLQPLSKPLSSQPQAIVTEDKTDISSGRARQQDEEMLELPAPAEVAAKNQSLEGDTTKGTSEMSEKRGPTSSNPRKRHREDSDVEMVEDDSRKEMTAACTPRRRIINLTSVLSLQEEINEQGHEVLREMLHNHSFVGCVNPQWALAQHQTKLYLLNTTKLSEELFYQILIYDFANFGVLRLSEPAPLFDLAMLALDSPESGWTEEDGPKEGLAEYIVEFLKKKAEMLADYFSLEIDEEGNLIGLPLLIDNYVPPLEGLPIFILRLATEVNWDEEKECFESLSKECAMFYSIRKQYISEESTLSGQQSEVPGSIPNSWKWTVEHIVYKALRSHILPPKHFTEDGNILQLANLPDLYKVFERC
Chain of recombinant MutLα (MLH1-PMS2) (P54278 whole entry, chain 2 of 2): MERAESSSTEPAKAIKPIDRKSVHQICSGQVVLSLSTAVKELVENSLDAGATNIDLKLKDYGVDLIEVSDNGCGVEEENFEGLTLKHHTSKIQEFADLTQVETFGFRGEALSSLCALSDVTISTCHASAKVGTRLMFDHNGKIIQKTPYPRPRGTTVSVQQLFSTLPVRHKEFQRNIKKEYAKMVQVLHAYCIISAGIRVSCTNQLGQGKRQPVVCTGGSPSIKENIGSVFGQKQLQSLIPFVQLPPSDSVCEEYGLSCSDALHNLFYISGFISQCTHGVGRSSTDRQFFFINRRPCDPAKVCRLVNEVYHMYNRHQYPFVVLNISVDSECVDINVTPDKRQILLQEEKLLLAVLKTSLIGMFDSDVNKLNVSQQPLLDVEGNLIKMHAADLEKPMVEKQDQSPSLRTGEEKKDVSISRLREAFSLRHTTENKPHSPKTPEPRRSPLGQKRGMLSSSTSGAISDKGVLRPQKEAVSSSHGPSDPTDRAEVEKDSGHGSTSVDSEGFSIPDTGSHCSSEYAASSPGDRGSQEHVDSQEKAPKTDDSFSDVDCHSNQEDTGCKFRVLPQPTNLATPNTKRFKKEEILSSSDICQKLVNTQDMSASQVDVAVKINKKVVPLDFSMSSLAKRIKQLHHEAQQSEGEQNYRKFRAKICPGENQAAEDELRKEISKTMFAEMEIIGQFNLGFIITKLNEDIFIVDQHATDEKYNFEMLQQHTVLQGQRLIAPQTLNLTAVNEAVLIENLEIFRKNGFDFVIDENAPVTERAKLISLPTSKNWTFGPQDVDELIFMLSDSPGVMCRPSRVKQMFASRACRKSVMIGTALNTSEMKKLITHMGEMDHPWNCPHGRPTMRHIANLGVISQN

Chain of Human MLH1 C-terminal domain (amino acids 486 to 756) (human) (P40692 486-756): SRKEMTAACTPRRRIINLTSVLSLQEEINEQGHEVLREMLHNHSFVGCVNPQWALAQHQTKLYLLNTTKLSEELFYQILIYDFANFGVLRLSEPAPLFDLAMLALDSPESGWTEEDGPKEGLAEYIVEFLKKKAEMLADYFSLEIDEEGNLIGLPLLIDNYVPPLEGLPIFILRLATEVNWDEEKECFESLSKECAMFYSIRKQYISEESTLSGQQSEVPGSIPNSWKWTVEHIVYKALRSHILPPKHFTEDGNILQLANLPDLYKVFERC

Row | Molecule | Kd [1] [nM] | binding result [2]
1 | FAN1-derived 42-mer peptide containing MIP and MIM (wt) | 70 | 
2 | FAN1 MIM 12-mer peptide (wt) | 3200 | 
3 | FAN1 MIP 8-mer peptide (wt) | 2800 | 
4 | GST-FAN1 (amino acids 118 to 177) (domain or fragment) KREVKQKISPYFKSNDVVCKNQDELRNRSVKVICLGSLASKLSRKYVKAKKSIDKDEEFA |  | binds
